Experimental data reported in patent US20140234868A1, “USE FOR GLYCOLIPOPROTEIN GINTONIN, ISOLATED AND IDENTIFIED FROM GINSENG, AS A NATURAL MEDICAL-PLANT DERIVED LIGAND” (KONKUK UNIVERSITY INDUSTRIAL COOPERATION CORP., priority 2011, published 2014).

Legend:
[1] = system: mutant NMDA receptor (S1308A); test: Gintonin-induced activation of mutant NMDA receptor S1308A in oocytes; format: cell-based; settings: mutant S1308A (PKC phosphorylation site)
Description: Two-electrode voltage-clamp recordings were obtained from individual oocytes placed in a small Plexiglas net chamber (5 ml). Electrophysiological experiments were performed using microelectrodes filled with 3 M KCl (resistance of 0.2-0.7 MΩ) and an Oocyte Clamp amplifier (OC-725C; Warner Instrument, Hamden, Conn.). For physiological recordings of NMDA receptor activity, oocytes were first perfused with Mg^2+-free ND96 (mM: 96 NaOH, 2 KOH, 0.3 CaCl2, 5 HEPES pH 7.6 with methanesulfonic acid). Then, the oocytes were clamped at −60 mV holding potential, followed by recoding NMDA currents (induced by administering […]) (Zheng et al., J Neurosci. 17, 8676-8686, 1997; Chang and Kuo, J Neurosci. 28, 1546-1556, 2008).
Thus, it is understood that gintonin stimulates PKC to phosphorylate the NMDA receptor at a specific site (S1308), and thus that gintonin-induced NMDA receptor activation is associated with PKC activity.

rat adrenal gland = test: Catecholamine secretion from perfused rat adrenal gland
Description: Male rats (Sprague-Dawley, each weighing 200 to 300 g) was anesthetized by an to intraperitoneal injection of thiopental sodium (50 mg/kgm), and the adrenal gland was excised from the rats according to the method of Wakade and Woo et al. (Wakade, J Physiol. 313, 463-480, 1981; Woo et al., Korean J Physiol Pharmacol., 12, 155-164, 2008).
Briefly, a cannula was inserted so as to perfuse the adrenal gland, as illustrated in FIG. 18. During the cannula insertion, heparin (400 IU/ml) was infused into the vena cava in order to prevent blood coagulation. Then, the adrenal gland was isolated from the body, and transferred to a leucite chamber which was kept at 37±1° C.
The adrenal gland was perfused at a rate of 0.33 ml/min with the aid of a peristaltic pump (ISCO® pump, WIZ Co. U.S.A.). The perfusion solution was a Krebs-bicarbonate solution: (mM) NaCl, 118.4; KCl, 4.7; CaCl2, 2.5; MgCl2, 1.18; NaHCO3, 25; KH2PO4, 1.2; glucose, 11.7.
The perfusion solution was continuously aerated with 95% O2+5% CO2 gas, and was maintained to have pH 7.4-7.5. In addition, the perfusion solution was supplemented with EDTA ([…]) and ascorbic acid ([…]) to prevent the oxidation of catecholamines (Woo et al., Korean J Physiol Pharmacol., 12, 155-164, 2008).
Gintonin (1˜10 μg/ml) or cyclopiazonic acid (10 μM) was applied by perfusion for 4 min while acetylcholine (5.32 mM) was infused at a dose of 50 μl using a three-way stopcock.
Prior to treatment with a material stimulating catecholamine secretion, the adrenal gland was left until the secretion of catecholamine in the absence of stimuli reached a constant level, that is, a background or basal level, which typically took 5˜10 min. Then, the adrenal gland was perfused with gintonin or other drugs, and perfusates effluent from the adrenal gland were collected at regular intervals of 4 min, and the amount of catecholamines released by drug stimulation was calculated by subtracting the background or basal level from measurements (Woo et al., Korean J Physiol Pharmacol., 12, 155-164, 2008).
In order to examine the effect of gintonin on the spontaneous secretion of catecholamine and on the stimulus-induced secretion of catecholamine, the adrenal gland was perfused with a Krebs solution containing gintonin alone or in combination with other drugs, after which the perfusates were collected until the amount of secreted catecholamine reached the background level. The collected adrenal perfusates were stored in tubes maintained at 4° C.
Catecholamine in the perfusates was quantified using a fluorospectrophotometer (Kontron Co., Milano, Italy) according to the methods of Anton and Sayre, and Lim. In this regard, each perfusate amounted to 0.2 ml (Woo et al., Korean J Physiol Pharmacol., 12, 155-164, 2008).

LPA6 receptor = target: T1, LPA6 receptor (Homo sapiens, UniProt P43657); test: Intracellular cAMP level in LPA6-expressing B103 cells; format: cell-based
T1 construct: host or cells: B103 rat neuroblastoma cells
T1 sequence (P43657 1-344): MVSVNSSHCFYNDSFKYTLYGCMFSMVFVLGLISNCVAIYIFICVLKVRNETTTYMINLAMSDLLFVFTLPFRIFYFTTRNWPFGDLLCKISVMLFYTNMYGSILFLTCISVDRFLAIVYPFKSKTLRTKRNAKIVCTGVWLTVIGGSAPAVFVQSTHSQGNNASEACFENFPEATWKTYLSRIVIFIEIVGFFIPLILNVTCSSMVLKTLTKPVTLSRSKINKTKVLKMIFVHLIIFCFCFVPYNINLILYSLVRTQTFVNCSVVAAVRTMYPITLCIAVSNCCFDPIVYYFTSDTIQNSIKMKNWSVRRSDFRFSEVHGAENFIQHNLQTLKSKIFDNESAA
Description: After treatment with gintonin, B103 cells expressing LPA3 or LPA6 receptor were examined for change in intracellular cAMP level.

GPR35 = target: T2, GPR35 (Homo sapiens, UniProt Q9HC97); test: Intracellular free Ca2+ in GPR35-expressing B103 cells; format: cell-based
T2 construct: host or cells: B103 rat neuroblastoma cells
T2 sequence (Q9HC97 whole entry): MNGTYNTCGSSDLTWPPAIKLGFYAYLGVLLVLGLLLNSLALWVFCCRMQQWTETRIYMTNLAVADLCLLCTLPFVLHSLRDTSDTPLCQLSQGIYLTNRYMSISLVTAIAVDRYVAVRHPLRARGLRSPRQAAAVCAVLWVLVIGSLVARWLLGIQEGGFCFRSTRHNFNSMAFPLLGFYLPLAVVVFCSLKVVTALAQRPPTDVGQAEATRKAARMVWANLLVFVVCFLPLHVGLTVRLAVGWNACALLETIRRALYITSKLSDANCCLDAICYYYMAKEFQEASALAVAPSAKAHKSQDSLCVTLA
Description: Optionally, the method may further comprise (8) pre-treating the suspended B103 cells with LPA receptor antagonists and LPA receptor-mediated signaling-relevant drugs (e.g., pertussis toxin, PLC inhibitors, IP3 receptor antagonists) to examine whether the cells decrease or increase in intracellular free Ca^2+, prior to treatment with gintonin; (9) performing site-directed mutagenesis to identify an amino acid of LPA receptors with which gintonin interact to activate the LPA; and (10) examining whether gintonin activates orphan GPCRs including GPR35 and GPR87, and free fatty acid GPCRs including GPR40, GPR41, GPR43 and GPR120, all known for activation by LPA.
In addition, GPR35 (Oka et al., Biochem Biophys Res Commun. 395, 232-237, 2010) and GPR87 (Tabata et al., Biochem Biophys Res Commun. 363, 861-866, 2007), both known as orphan GPCRs reacting with LPA, and GPR40, GPR41, GPR43 and GPR120 (Hirasawa et al., Biol Pharm Bull. 31, 1847-1851, 2008), all known as fatty acid receptors reacting with free fatty acids, were expressed in B103 cells when gintonin activity was tested.

B1: gintonin: ginseng-derived glycolipoprotein; structural protein of ginseng major latex-like protein (MLP151) and ribonuclease-like storage proteins; crude gintonin used in tests (protein)
chain 1: MGLTGKLICQTGIKSDGDVFHELFGTRPHHVPNITPANIQGCDLHEGEFGKVGSVVIWNYSIDGNAMIAKEEIVAIDEEDKSVTFKVVEGHLFEEFKSIVFSVHVDTKGEDNLVTWSIDYEKLNESVKDPTSYLDFLLSVTRDIEAHHLPK
chain 2: RSDYPWAMFALRLQWPAGFCEVNNACDTKSLLNTFTIHGLYPYNAKGTPALYCDGTAFDVNSVSDFLAEMHLAWPSHETNTEDIQFWEHEWKKHGRCSEALLKQTDYFRTALAFRKAFDIVGLLNQEGIYPNNDLYRPKMIKEAIKKHLNAVPEIDFTKNENSEYVLTDINVCVNQQATRFVDCPTDDATDDYRLKFVRLPSKMKFADPRTNSII
gintonin-induced NMDA receptor activation [1]: a low level of gintonin-induced NMDA receptor activation | catecholamine secretion after acetylcholine (rat adrenal gland; gintonin 1 μg/ml, pre-treatment with 5.32 mM acetylcholine): incapacitated the effect | catecholamine secretion after acetylcholine (rat adrenal gland; gintonin 3 μg/ml, 5.32 mM acetylcholine): continually promote the secretion of catechlamine | catecholamine secretion after acetylcholine (rat adrenal gland; gintonin 10 μg/ml, 5.32 mM acetylcholine): stimulates the secretion of catecholamine in the early stage, but could not induce the secretion since then | catecholamine secretion (rat adrenal gland; gintonin 1~10 μg/ml, perfusion at 15-min intervals): continually secrete catecholamine in a dose-dependent manner | change in intracellular cAMP level (LPA6 receptor): no influences on intracellular cAMP level | increase of intracellular calcium level (GPR35): increase an intracellular calcium level in GPR35-expressing B103 cells, but slightly
